The values that follow come from patent publication US10117953B2, “Antibody drug conjugates” (Novartis AG, priority 2013, dated 2018).

What all share (type): cell-based, human
In assay [1] the test system is surface cKIT on GIST-T1 cells. The assay is described as follows: Ab-mediated internalization of surface cKIT by flow cytometry. Conditions: 10 ug/ml, 30 min to 24 hr at 37° C. Here is the method:
The kinetics of cKIT antibody mediated internalization was evaluated by treating with antibody in a cell monolayer using a temperature shift method and flow cytometry readout. GIST-T1 (kindly provided by Dr. Takahiro Taguchi, Kochi U., Japan) cells were seeded at 2.5×10E5 cells/well in five 12-well tissue culture treated plates (BD Falcon 353043). The cells were incubated in a tissue culture incubator at 37° C. with 5% CO2 overnight. The following day medium was removed and replaced with 450 ul fresh medium. […] All cells were incubated for 1 hr on ice, followed by two washes with 1 mL 1× Phosphate buffered saline (PBS) and resuspended in 500 μl cell culture medium. Plates #2-5 were transferred to 37° C. and harvested at time points; 30 min, 2 hr, 4 hr and 24 hr at 37° C. with 5% CO2. 100 μl of cell dissociation buffer (Gibco Cat#13150-016, Life Technologies, Carlsbad, Calif.) was added to plate#1 (4° C. binding control) and incubated at 37° C. until cells were detached. […] The following day, all samples were analyzed using the BD FACSCanto II® equipment using a HTS system (BD Biosciences, San Jose, Calif.). Samples were analyzed with FlowJo software to obtain the Geometric Mean values of fluorescence for the Phyeoerythrin channel, FIG. 13A is a plot of % of initial cell surface binding vs […] at 37° C.×100.

Assay [2] deals with Mo7e cells (SCF-dependent). As to the kind of experiment: Mo7e proliferation assay in presence of SCF. To be noted: 10 ng/ml SCF, 5 days. The protocol: To evaluate the potential antagonistic properties of the naked antibodies and the ability of the antibody drug conjugates (ADCs) to inhibit the proliferation of a cKIT-expressing cell line, MO7e (DSMZ, Catalog # ACC-104, Braunschweig, Del.) were grown in the presence or absence of cKIT ligand, Stem Cell Factor (SCF), for survival. MO7e cells were grown in either 10 ng/ml human granulocyte-macrophage colony-stimulating factor GM-CSF (R&D Systems Cat#215-GM, Minneapolis, Minn.) or 10 ng/ml human Stem Cell Factor SCF (R&D Systems Cat#255-SC) prior to seeding in 96 well plates (Costar Cat #3904, Corning, Tewksbury, Mass.) at 5000 cells/well in 100 μl dilution medium. A duplicate plate was generated for a day 0 measurement and all plates were incubated in a tissue culture incubator at 37° C. with 5% CO2 overnight. […] Assay plates were shaken gently for 20 min and the resulting luminescence intensity was measured using a Perkin Elmer 1450 Microbeta TriLux® plate reader (Perkin Elmer, Waltham, Mass.). […] Following this incubation period, relative cell viability was determined via the addition of Cell titer Glo reagent as described above. The effect of the ADCs on cell proliferation was calculated using the average of the duplicates as follows: (% Inhibition=(ADC or Ab treated)/(untreated)*100) The % inhibition data was fitted to a 4-parameter logistic equation and IC50 values were determined.

Another assay has as its system Uke-1 cells. As to the kind of experiment: ADCC activity in vitro (Calcein release, NK3.3 effector cells). To be noted: effector to target ratio 20 to 1. The protocol:
In brief, Uke-1 cells were stained with Calcein acetoxy-methyl ester (Calcein-AM; Sigma-Aldrich catalog #17783-5MG, St. Louis, Mo.), washed twice, pipetted into a 96-well microtiterplate (96 well, U-bottomed, clear plastic; Corning Costar, catalog #650 160, Tewksbury, Mass.) at a concentration of 5000 cells per well and pre-incubated for 10 min with a serial dilution of the above mentioned antibodies and proteins (from 50,000 to 0.003 μg per ml) before adding the effector NK3.3 cells for 1 hour in an effector to target ratio of 20 to 1. In order to calculate the antibody specific lysis of the target cells, a parallel incubation of target cells only without antibody or effector cells served as a baseline and negative control, whereas the positive control or maximal lysis or hundred percent specific lysis was determined by lysis of target cells only with a 1% Triton-X 100 solution. […] Following a co-incubation of target and effector cells, the microtiterplate was centrifuged and an aliquot of the supernatant fluid was transferred to another microtiterplate (96 well, flat-bottomed, black with clear bottom; Corning Costar, catalog #3904, Tewksbury, Mass.) and the concentration of free Calcein in solution was determined with a fluorescence counter (Victor 3® multilabel counter, Perkin Elmer, Waltham, Mass.).

Sequence of surface cKIT on GIST-T1 cells (P10721 26-509 limits assumed): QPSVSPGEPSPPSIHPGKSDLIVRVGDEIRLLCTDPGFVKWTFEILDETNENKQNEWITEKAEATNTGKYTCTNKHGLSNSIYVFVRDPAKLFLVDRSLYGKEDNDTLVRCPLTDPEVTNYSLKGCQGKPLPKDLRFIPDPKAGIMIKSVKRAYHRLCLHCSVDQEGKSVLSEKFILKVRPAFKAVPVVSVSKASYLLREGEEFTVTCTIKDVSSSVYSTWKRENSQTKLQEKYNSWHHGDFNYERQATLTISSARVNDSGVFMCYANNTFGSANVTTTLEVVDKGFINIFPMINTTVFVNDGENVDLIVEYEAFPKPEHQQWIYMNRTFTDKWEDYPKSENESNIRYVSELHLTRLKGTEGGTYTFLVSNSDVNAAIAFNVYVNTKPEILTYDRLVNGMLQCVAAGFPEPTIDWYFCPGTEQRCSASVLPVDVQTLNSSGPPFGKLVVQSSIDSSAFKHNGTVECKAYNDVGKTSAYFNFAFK

B1: NEG085: anti-cKIT antibody of Table 1; VH SEQ ID NO 82, VL SEQ ID NO 91; derived from 9P3 (antibody, V domains shown)
VH: EVQLVESGGGLVQPGGSLRLSCAASGFAFSGYYMAWVRQAPGKGLEWVANINYPGSSTYYLDSVKGRFTISRDNAKNSLYLQMNSLRAEDTAVYYCARGDYYGTTYWYFDVWGQGTTVTVSS
VL: DIQMTQSPSSLSASVGDRVTITCRASQSISSYLNWYQQKPGKAPKLLIYYTSRLQSGVPSRFSGSGSGTDFTLTISSLQPEDFATYYCQQGRRLWSFGGGTKVEIK
Regarding B1, in assay [1], the “internalization after binding cKIT on the cell surface” value was “rapidly internalized into the cell”. Moreover, in assay [2], the “inhibition of cell proliferation” value is “do not have this effect”. The ADCC entry in the assay on Uke-1 cells is reported as “not able to induce ADCC even at higher concentrations”.
